Test results from the supplement of paper PMC10724198.
± gives the standard deviation of the averaged measurements.

Assays:
Saccharomyces cerevisiae [1] = test: protein stability index of tFT-peptide fusion (C-terminal peptide) (PSI (0-1 scale)); higher = more stable (slower turnover)
Description: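 MPS profiling in S. cerevisiae of the tFT-X12 degron library: putative degron peptides plus stable controls, 12 aa, fused to the C-terminus of a sfGFP-mCherry timer. Cells are FACS-sorted into 8 mCherry/sfGFP bins and deep-sequenced. PSI runs from 0 (unstable) to 1 (stable). Backgrounds are wild type, das1Δ and doa10Δ at 30 °C, and wild type, das1Δ, cdc34-1 and cdc53-1 at 37 °C; 2-3 technical replicates each.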

Saccharomyces cerevisiae [2] = test: as above; conditions: genetic background: wild type; temperature: 30 C
[3] = genetic background: cdc34-1, temperature: 37 C
[4] = genetic background: cdc53-1, temperature: 37 C
[5] = genetic background: das1 deletion, temperature: 30 C
[6] = genetic background: das1 deletion, temperature: 37 C
[7] = genetic background: doa10 deletion, temperature: 30 C
[8] = genetic background: wild type, temperature: 30 C
[9] = genetic background: wild type, temperature: 37 C
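Note: PSI is a weighted mean of sequencing reads over stability bins, variants kept only with over 10 reads, mCherry proximal and sfGFP distal, peptide attached via GGGS linker.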

Row | Sequence | protein stability index (Saccharomyces cerevisiae [1]; [3]) | protein stability index (Saccharomyces cerevisiae [1]; [4]) | protein stability index (Saccharomyces cerevisiae [1]; [5]) | protein stability index (Saccharomyces cerevisiae [1]; [6]) | protein stability index (Saccharomyces cerevisiae [1]; [7]) | protein stability index (Saccharomyces cerevisiae [1]; [8]) | protein stability index (Saccharomyces cerevisiae [1]; [9]) | protein stability index (Saccharomyces cerevisiae [2])
1 | ACCLLFSFAFTV | 0.452 ± 0.026 | 0.5103 ± 0.0014 | 0.32 ± 0.04 | 0.517 ± 0.0016 | 0.187 ± 0.0034 | 0.213 ± 0.029 | 0.4184 ± 0.0027 | 0.301 ± 0.028
2 | AFFALGSFFFLL | 0.631 ± 0.042 | 0.685 ± 0.0071 | 0.586 ± 0.039 | 0.7296 ± 0.0054 | 0.265 ± 0.0044 | 0.289 ± 0.03 | 0.519 ± 0.034 | 0.0874 ± 0.015
3 | AFRCVVLCWFLK | 0.31 ± 0.031 | 0.434 ± 0.0094 | 0.292 ± 0.038 | 0.498 ± 0.0098 | 0.268 ± 0.029 | 0.281 ± 0.014 | 0.413 ± 0.011 | 0.415 ± 0.023
4 | AFVSVHRLRLAS | 0.642 ± 0.016 | 0.724 ± 0.014 | 0.605 ± 0.017 | 0.734 ± 0.01 | 0.174 ± 0.0083 | 0.183 ± 0.037 | 0.374 ± 0.018 | 0.4053 ± 0.0023
5 | AGLAPCFLLFVC | 0.261 ± 0.027 | 0.343 ± 0.019 | 0.3 ± 0.033 | 0.44 ± 0.0063 | 0.0908 ± 0.024 | 0.0981 ± 0.021 | 0.0938 ± 0.026 | 0.133 ± 0.019
6 | AGMIKLRKKKVL | 0.6487 ± 0.003 | 0.7395 ± 0.003 | 0.634 ± 0.021 | 0.7208 ± 0.0012 | 0.208 ± 0.026 | 0.248 ± 0.041 | 0.452 ± 0.0093 | 0.417 ± 0.042
7 | AGSPPSRPPWLP | 0.675 ± 0.047 | 0.7369 ± 0.0062 | 0.679 ± 0.051 | 0.759 ± 0.024 | 0.679 ± 0.034 | 0.678 ± 0.021 | 0.719 ± 0.042 | 0.506 ± 0.018
8 | AGVRLIFLFWGF | 0.521 ± 0.05 | 0.608 ± 0.027 | 0.43 ± 0.037 | 0.6496 ± 0.0056 | 0.444 ± 0.028 | 0.407 ± 0.054 | 0.621 ± 0.036 | 0.4945 ± 0.0016
9 | AHSFKCVGVAVR | 0.4628 ± 0.00085 | 0.504 ± 0.01 | 0.332 ± 0.024 | 0.5469 ± 0.0017 | 0.309 ± 0.004 | 0.347 ± 0.032 | 0.544 ± 0.0072 | 0.3246 ± 0.0014
10 | AIREVQYSFFPS | 0.681 ± 0.041 | 0.755 ± 0.018 | 0.652 ± 0.0074 | 0.7527 ± 0.0042 | 0.6445 ± 0.0018 | 0.66 ± 0.012 | 0.723 ± 0.016 | 0.715 ± 0.021
11 | ALERCFIRRVTV | 0.513 ± 0.013 | 0.582 ± 0.024 | 0.415 ± 0.017 | 0.593 ± 0.021 | 0.322 ± 0.024 | 0.394 ± 0.016 | 0.532 ± 0.01 | 0.477 ± 0.069
12 | ALVYVPACRLVV | 0.59 ± 0.049 | 0.624 ± 0.022 | 0.492 ± 0.021 | 0.634 ± 0.024 | 0.256 ± 0.011 | 0.303 ± 0.018 | 0.481 ± 0.018 | 0.4017 ± 0.0028
13 | APCRVPVLGLVF | 0.249 ± 0.026 | 0.265 ± 0.0055 | 0.235 ± 0.036 | 0.364 ± 0.018 | 0.204 ± 0.016 | 0.257 ± 0.013 | 0.344 ± 0.025 | 0.327 ± 0.034
14 | APLPPVCPSPSL | 0.667 ± 0.081 | 0.72 ± 0.015 | 0.655 ± 0.0086 | 0.713 ± 0.019 | 0.679 ± 0.052 | 0.657 ± 0.018 | 0.72 ± 0.01 | –
15 | ARRRYEVLAVLV | 0.477 ± 0.024 | 0.522 ± 0.025 | 0.459 ± 0.041 | 0.5983 ± 0.0026 | 0.135 ± 0.0081 | 0.149 ± 0.024 | 0.149 ± 0.021 | 0.227 ± 0.0072
16 | ASTGPLAAIRVY | 0.519 ± 0.0057 | 0.622 ± 0.023 | 0.396 ± 0.028 | 0.5994 ± 0.0011 | 0.377 ± 0.035 | 0.41 ± 0.019 | 0.588 ± 0.017 | 0.495 ± 0.013
17 | AVCVGILIWATV | 0.0816 ± 0.0045 | 0.0998 ± 0.009 | 0.176 ± 0.029 | 0.275 ± 0.013 | 0.142 ± 0.018 | 0.165 ± 0.025 | 0.264 ± 0.017 | 0.314 ± 0.08
18 | AVLVSGMVVWLV | 0.643 ± 0.053 | 0.709 ± 0.015 | 0.54 ± 0.025 | 0.672 ± 0.06 | 0.32 ± 0.013 | 0.357 ± 0.0096 | 0.563 ± 0.01 | 0.436 ± 0.032
19 | AVSFTLVLCSCF | 0.474 ± 0.025 | 0.489 ± 0.029 | 0.416 ± 0.039 | 0.473 ± 0.023 | 0.389 ± 0.0073 | 0.401 ± 0.019 | 0.444 ± 0.0074 | 0.449 ± 0.023
20 | AVVLLFIPRKLL | 0.472 ± 0.042 | 0.53 ± 0.034 | 0.39 ± 0.029 | 0.568 ± 0.014 | 0.148 ± 0.011 | 0.173 ± 0.021 | 0.293 ± 0.015 | 0.245 ± 0.079
21 | AVWVAVEVEAGR | 0.468 ± 0.045 | 0.498 ± 0.025 | 0.331 ± 0.026 | 0.5447 ± 0.0044 | 0.3 ± 0.009 | 0.333 ± 0.023 | 0.53 ± 0.018 | 0.436 ± 0.026
22 | AVYEGLLIRCLI | 0.4982 ± 0.0037 | 0.5271 ± 0.0033 | 0.392 ± 0.033 | 0.5549 ± 0.0045 | 0.195 ± 0.013 | 0.251 ± 0.021 | 0.392 ± 0.0068 | 0.337 ± 0.011
23 | AYFLKRSSILVR | 0.311 ± 0.05 | 0.376 ± 0.015 | 0.241 ± 0.031 | 0.439 ± 0.011 | 0.2062 ± 0.002 | 0.217 ± 0.034 | 0.395 ± 0.011 | 0.352 ± 0.017
24 | CAIHIKIQMSVE | 0.0158 ± 0.0046 | 0.0731 ± 0.0079 | 0.0577 ± 0.019 | 0.136 ± 0.031 | 0.0457 ± 0.0051 | 0.0488 ± 0.02 | 0.128 ± 0.028 | 0.0995 ± 0.011
25 | CALCIGTYIRVV | 0.495 ± 0.01 | 0.503 ± 0.014 | 0.385 ± 0.029 | 0.552 ± 0.0098 | 0.367 ± 0.029 | 0.345 ± 0.048 | 0.501 ± 0.031 | 0.451 ± 0.029
26 | CCLFFLVVFVGW | 0.167 ± 0.0038 | 0.227 ± 0.027 | 0.191 ± 0.034 | 0.335 ± 0.027 | 0.194 ± 0.029 | 0.183 ± 0.019 | 0.274 ± 0.0075 | 0.255 ± 0.021
